In the nanobody polyreactivity screen of Harvey et al. (2022):

Assay: yeast display, Sf9 membrane polyspecificity reagent, FACS + sequencing; frameworks hold sequencing errors
Procedure, shortened: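 Synthetic nanobody libraries on Saccharomyces cerevisiae BJ5465 were galactose-induced for 36–48 hours, stained 1 hour at 4 °C with 10% biotinylated, detergent-solubilized Sf9 membrane reagent and enriched on streptavidin microbeads. FACS then separated cells into low and high (top ~1%) gates by anti-HA (expression) and streptavidin (reagent binding) fluorescence. Genes were colony-PCR amplified, MiSeq 2 × 250 sequenced and CDR-length filtered. A clone's polyreactivity label is that of its gate of origin.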

Sequence	polyreactivity (PSR sort gate)
QVQLVESGGGLVQAGGSLRLSCAASGSIFARNAMGWYRQAPGKERELVASITWSGASTYYADSVKGRFTISRDNAKNTVYLQMNSLKPEDTAVYYCAATDQKLSLDYSSYEYWGQGTQVTVSS	low polyreactivity
QVQLLESGGGLVQAGGSLRLSCAASGSIFATYAMGWYRQAPGKERELVAAISSSGARTYYADSVKGRFTISRDNAKNTVYLQMNSLKPEDTAVYYCNADLYSYFWRVRYGLDYWGQGTQVTVSS	high polyreactivity
QVQLVESGGGLVQAGGSLRLSCAASGFTFGPYDMGWYRQAPGKERELVAVIIGGDSTNYADSVKGRFTISRDNAKYTVYLQMNSLKPEDTAVYYCAADYIDRVGWMDYWGQGTQVTVSS	low polyreactivity
QVQIVESGGGLVQAGGSLRLSCAASGSIFWPYTMGWYRQAPGKERELVAAISYSGGRTYYADSVKGRFTISRDNAKNTVYLQMNRLKPEDTAVYYCAAGTYSRGSREDYWGQGTQVTVSS	high polyreactivity
IIQAGGSLRLSCAASVRTFSGYAMGWYRQAPGKERELIADITSGGSTYYADSVKGRFTISRDNAKNTVYLQMNSLKPEDTAVFYCCRDDRLAGDYWGQGTQVNVSS	low polyreactivity
QVQLVESGGGLVQAGGSLRLSCAASGITFKRYAMGWYRQAPGKERELVAAITISAGSTYYADSVKGRFTISRDNAKNNVYLQMNSLKPEDTAVYYCAAESYGSWYYYWGQGTQVTVSS	high polyreactivity
QVQLVESGGGLVQAGGSLRLSCAASGRIIFHNAMGWYRQAPGKERELVASITSGDGTYYSDSVKGRFTISRDNAKNTVYLQMNSMKPEDTAVYYCAAEPGSIAYYYNRVGLYYWGQGTQVTVSS	low polyreactivity
QVQRVESGGGLVQAGGSLRLSCAASGSIFNPYAMGWYRQARGKVRELGAAISKSGTSTSYADSRKGRFTISRDNAKNTVYLQMNSLKPEDTAVYYCAVQVRRRYNYWGQGTQETVSS	high polyreactivity
QDQLVESGGGLVQAVGSLRLSCAASGSTFWSYAMGWYRQAPGKERELVAAITDSGGSTYYADSVKGRFTISRDNAKNTVYLQMNSLKPEDTAVYYCAVDSRYTPPLRPLGPFDYWGQGTQVTVSS	low polyreactivity
QVQLVESGGGLVQAGGSLRLSCAASGFTFYRYAMGWYRQAPGKERELVATISASGGSTYYADSVKGRFTISRDNAKNTVYLQMNSLKPEDTAVYYCAAEHYLWGYVVVREDYWGQGTQVTVSS	high polyreactivity
QVQLVDSGGGLVQAGGSLRLSSPASGFIIGLYAMGWYRQEPGKERELVAAISTSSGITYYADSVKGRFTISRDNAKNSVYLQMNSLKPEDTAVYYCAARGHYYDFCGQGTQVTVSS	low polyreactivity
QVQLVESGGGLVQAGGSLRLSCAASGRIFGVYAMGWYRQAPGKERELVATITSGGSTSYADSVKGRFTISRDNAKNTVYLQMNSPKPEDTAVYYCNAPYSFFWQQMNYWGQGTQVTVSS	low polyreactivity
QVQLVESGGGLVQAGGSLRLSCAASGFIFVYNAMGWYRQATGKERELVAAIDYGGGSTTYADSVKVRFTISRDNAKNTVYLQMNSLKPEDTAVYYCAAYYRYLDDIYEYEYWGQGTQVTVSS	low polyreactivity
QVQLVESGGGLVQAGASLRLSCAASGSIFYDNAMGWYRQAPGKERELVASIRWSGDSTYYADSVKGRITISRDNAKNTVYLQMNSLKPEDTAVYYCAADPVEPYFTAIAYDYWGQGTQVTVSS	low polyreactivity
QVQLVESGGGLVQAGGSLRLSCAASGRIYLKYTMGWYRQAPGKEREMVAAISRGGSTYYADSVKGRFTISRDNAKNTVYLQMNSLKPEDTAVYYCAATSYRRTGYNYWGQGTQVTVSS	high polyreactivity
QVQLVESGGGLVQAGGSLSLSCAASGRIYNYAMGWYRQAPGKERELVAAITGRGGSTYYADSVKGRFTISRDNAKNTVYLQMNSLKPEDTAVYYCARAGGPRHDWGQGTQVTVSS	high polyreactivity
QVQLVESGGGLVQAGGSLRLSCAASGRIFRYNAMGWYRQAPGKERELVADINSGGITNYADSVKGRFTISRDNAKNTVYFQKNSLKPEDTAVYYCNTATNLSCGYDSWGQGTQVTVSS	low polyreactivity
QVQLVDSRGGLVQAGGSLRLSCAASGFTFWYYAMGWYRQAPGKERELVAAITNGGGSKYYADSVKGRFTISRDNAKNTFYLQMNSLKPEDTAVFYCAKDGHSYYPWEYDYWGQGTQVTVSS	low polyreactivity
QVQLVESGGCLVQAGGSLRLSCAASGLIFLGYAMGWYRQAPGKERELVASIRTGGSTSYADSVKGRFTISRDNAKNTVYLQMYSLKPEDTAVYYCAADRGRPNLPGDYWGQGTQVTVSS	low polyreactivity
QVQLVESGGGLVQAGGSLRLSCGASGRTFGRYAMGWYRQAPGKERELVDAITWSGGSTYYADSVKGRFTISRDNAKNTVYLQMNSLKPEDTAVYYCAASGYPIYHDDYWGQGTQVTVSS	low polyreactivity
QVQLVESGGGLDQAGGSLRLSCAASGRTFYNNAMGWYRPAPGKERELVAAITRGGSTYYADSVKGRFTISRDNAKNTVYLPMNSLKPEDTAVYYCAADGFTRWGRYDYWGQGTQVTVSS	high polyreactivity

Sequence	polyreactivity (PSR sort gate)
QVQLVESGGGLVQAGGSLRLSCAASGSTFWPNAMGWYRQAPGKERELVAAITGGGGTNYADSVKGRFTISRDNAKNTVYLQMNSLKPEDTAVYYCAAKKVNSRSHVKYYYWGQGTQVSVSS	high polyreactivity
QVQLVESGGGLVQAGGSLRLSCAASGFIFDQNAMGCYRQAPGKEREFVAAISSRGSRTYYADSVKGRFTISRDKAKNTVYLQMNSLKPEDTAVYDCAAGYWARLYDYDYWGQGTQVTVSS	high polyreactivity
QVQLVESGGGLVQAGGSLRLSCAASGSTFCDNSMGWYRQAPGKERELVAAITTSGTSTYYADSVKGRFTISRDNAKNTVYLQMNSLKPEDTAVYYCAAPYGVARFGDYLDDYDYWGQGTQVTVSS	low polyreactivity
QVQLVESGGGLVQAGGSLRLICAASGSTIFENVMGWYRQAPGKEREFVAAINTSGGSTYYADSVKGRFTISRDNAKNTVYLQMNILKPEDTAVYYCARDSYWEMDYWGQGTQVTVSS	low polyreactivity
QVQLVESGGGLLQAGGSLRLSCAASGFIFRRNAMGWYIQAPGKEREFVASISKSSDLTYYADSVKGRFRISRDNAKNTVYLQMNSLKPEVTAVYYCAAKVRQWRHGSYSSQYDYWGQGTQVTVSS	high polyreactivity
QVQLVESGGGLVQAGGSLRLSCAASGIIFGYYAMGWKRQAPGKERELVAAIDWTGGNTYYADSVKGRFTSSRDNAKNTVYLQMNSLKPEDTAVYYWAADSNSQEDYWGQGTQVTVSS	low polyreactivity
QVQLVESGGGLVQAGGSLRLSCAASGRTFRYYAMGWYRQAPGKERELVASISSSGSTNYADSVKGRFTISRDNAKNTVYLQMNSLKPEDTAVYYCAAESRYPFIYEYWGQGTQVTVSS	low polyreactivity
QVQLVESGGGLVQAGGSLRLSCAASGFTFYRYAMGWYRQAPGKERELVAAISKRGGNTYYADSVKGRFTISRDNAKNTVYLQMNSLKPEDTAVYYCAADFATWDAKPYDYWGQGTQVTVSS	high polyreactivity
QGQLVESGGGLVQAGGSLRLSCAASGRTFVDYDMGWYRQAAGKERELVADINSGGSTYYADSVKGRFTISRDNAKNTVYLQMNSLKREDSAVYYCAADDGWGYISSYDYEYWGQGTQVTVSS	high polyreactivity
QVQLVESGVGLVQAGGSLRLSCAASGFIFYNYAMGWYRQAPGKERELVASITSGGGTNYADSVKGRFTISRDNAKNTVYLQMNSLKPEDTAVYYCAVRGRGRFNGYGYWGQGTQVTVSS	high polyreactivity
QVQLVESGGGLVQAGGSLRLSCAASGSIFWKYAMGWYRQAPGKERELVAAISDGVSTNYADSVKGRFTISRDNAQNTVYLQMNSLKPEDTAVYYCNAETRERDPTREFDYWGQGTQVTVSS	low polyreactivity
QVQLVQSGGGLVQAGGSLSLSCAASGRIFGINAMGWYRQAPGKESELVAAISSGGSTYYADSVKGRFTISLDNAKNTVYLQMNSLKPEDTAVYYCAADYDSYVSHDRGVWRDYWGQGTQVTVSS	low polyreactivity
QVQLVESGGGLLQAGGSLRLSCAASGGTFERNAMGWYRQAPGKERELVAAISISGGRTYYADSVKGRFTISRDNAKNTVYLQMKSLKPEDTAVYFCAAGVGSRIKQVGNDYWGQGTQVTVSS	high polyreactivity
QVQLVESGGGLVQAGGSLRLSCAASGFTFRYYTLGWYRQAPGKERELVAVMRSTGSTNYADSVKGRFTISRDNAKNTVYLQMNSLKAEDTAVYYCNAARGWYNPPKYGSIGFDYWGQGTQVTVSS	high polyreactivity
QVQLVESGGGLVQAGGSLRLSCAASGSIILAYAMGWYRQAPGKERELVAAITGSGGRTYADSVKGRFTISRDNAKNTVYLEMNSLKPEVTAVYYFAAYYYGNWQGYYWGQGTQVIVSS	low polyreactivity
QVQLVESGGGLVQAGGSLRLSCAASGNIFSAYAMGWYRQAPGTERELVAAISRSVTITYYADSVKGRFTISRDNAKKTDYLQMNSLKPEDTAVYYCAARDYHYPKFGYCGQGTQVTVSS	high polyreactivity
QVQLVESGGGLVQAGGSLRLSCAASGSTFTTYAMGWYRQAPGKERELVAAISRTGGVTYYADTVKGRFTISRDNGKKTVYLQMNSLKPDDTAVYYCNAGLFRGAQFDYWGLGTQVTVSS	high polyreactivity
QVQLVESGGGLVQAGGSLRLSCAASGSIFSIYAMGWYRQAPGKERELVASITRSSGRTYYADSVKGRFTISRDNAKNTVYLQMNSLKPEDTAVYYCAKDYIPLALDADDYWGQGTQVTVSS	low polyreactivity
QVQHVESGGGLVHAGGRLRLRCAASGSTFVTNVMGWYSQEPGKEMELVAAISYSGGNTYYEDSEKGRFTISRDNAQNSVYLQMNSLKQEDTAVYYCAAAYKPFKKMGYWGQGTQVTVSS	high polyreactivity
QVQLVESGGGLVPAGGSLRLSCAASGRIFRVYAMGWYRQAPGKERELVASISSGGSTNYADSVKGRFTISRDNAKNTVYLQMNSLKPEDTAVYYCAADYWYRLFWYYGAPLDYWGQGTQVTVSS	low polyreactivity
